A short description of this data set: yeast display, Sf9 membrane polyspecificity reagent, FACS + sequencing; frameworks hold sequencing errors. Put shortly:
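Galactose induction of a Saccharomyces cerevisiae BJ5465 synthetic nanobody display library ran 36–48 hours. The cells were then stained for 1 hour at 4 °C with 10% biotinylated, detergent-solubilized Sf9 membrane reagent, pulled down on streptavidin microbeads and FACS-sorted into low and high (top ~1%) gates on expression and reagent-binding fluorescence. Labels for polyreactivity follow the gate of origin.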
On to “QVQLVESGGGLVQAGGSLRLICAATGRNFRYYAMGWYRQAAGKERQLVAAIRNGGSTYYADSVKGRFTISRDNAKNTVYLQMNSLKPEDTAVYYCAGRYNYVSHRGGDWGHGTQVTVSS”, for which the “polyreactivity (PSR sort gate)” value is recorded as “high polyreactivity”.

For the sequence “QVQLVESGGGLVQAGGSLRLSCAASGITLTKNAMGWYRQAPGKERELVAGITRGSRTNYADSVKGRFTISRDNAKNTVYLQMNSLKPEDTAVYYCAASYWPYRGPVGGSKMYYWGQGTQVTVSS”, the “polyreactivity (PSR sort gate)” value is “high polyreactivity”. With “QVQLVESGGGLVQAGGSLRLSCAASGIIFVSYDMGWYRQAPGKERELVAAINRGGRTYYADSVKGRFTISRDNAKNTVYLQMNSLKAEDTAVYYCAAQFHFRPFSLTYDYWGQGTQLTVSS” the entry was “high polyreactivity”; with “QVQLLETGGGLVQAGGSLRLSCAPSGSTFYYYAMGWYRQAPGKEWELVAAISWSGVSTYYADSVKGRFTISRDNAKTTVYLQMNSLKPEDNAVYYCNADSYTLYGRYDYWGQGTQVTVSS”, “low polyreactivity”. With “QVHLVESGGCLVQAGGSLRLSCAASGSTFSRYAMVWYRQAPGKEREYVAGISWSGGNTYYADSVKGRFTISRDNAKNTVYLQMNSLKTEATAVYYCASDFLDYWGVYGWAEYEYWGQGTQGTVSS” the entry was “low polyreactivity”; with “QVQLVESGGCLVQAGGSLRLSCAASGFIFAYYAMGWYRQARGKERELVAAISYSGSTKYSDSVKGRFTISRDNSKNTVNLQMNSLKPEDTAVYYCAADRVWGTPQAYVPSQFDYWGQGTQVTVSS”, “low polyreactivity”; with “QVQLVESGGGLVQAGGSLRLRCAASGRTFAFYGMGWYRQAPGNARELVAAITKRGGSTYYADSVKGRFTISLDNAKYTVYLQMNSLKPEDTAVYYCAATGVKGRIAVWYGYWGQGTQVTVSS”, “high polyreactivity”. With “QVQLVESGGGLVQAGGSLRLSCAASGRTFAVYAMGWYRQAPGKERELVAAITRSGGSTYYADSVKGRFTISRDNAKNTVYLQMNSLKPEDTAVYYCAAGGQARHDYWGQGTQVTVSS” the entry was “low polyreactivity”. In the case of “QVQLVDSGGGLVQAGGSLRLSCAASGFTFSYYVMGWYRQAPGKERELVAAITSSGGSTYYADSVKGRFTISRDNAKNTVSLQMISRNPEDTAVYYCNALVLSSEYGYWGLGTQVTVSS”, the “polyreactivity (PSR sort gate)” value is “high polyreactivity”.

For the sequence “QVQLVESGGGLVQAGGSLRLSCAASGSIFVRNGMGWYRQAPGKERELVASITSGTITYYADSVKGRFTISRDNAKNTVYLQMNSLKPEDTAVYYCNAGWRSSRMEYWGQGTQVTVSS”, the “polyreactivity (PSR sort gate)” value is recorded as “high polyreactivity”. On to “QVHLVESGGGLVQAGGSLRLSCAATGSTISRYAMGWYRPAPGKERELVAAISWGGNTYYADSVKGRFTISRDNAKNTVYLQMNSLKPEDTAVYYCNRYSKLYNTMDYWGQGTQVTVSS”, for which the “polyreactivity (PSR sort gate)” value is on record as “high polyreactivity”. With “QVQLVESGGGLVQAGGSLRLSCAASGITFDSYAMGWYRQSPGKEREWVDAISYSGGSTYYADSVKGRFTISRDNAKNTVNLQMNRLKPEDTAVYYFAAASDEDYDYWGQGTQVTVSS” the entry was “low polyreactivity”. With “QVQLVESGGGLVQAGGSLRLSFAASGIIFGWYAVGWYRQAHGKDRELVAAINIGGSTNYADSVKGRFTISRYNAKNTVYLQMNSLKPEDTADYYCNARTPGYRYGRDYWGQGTQVTVSS” the entry was “high polyreactivity”; with “QVHLVESGGGLVQAGGSLRLSCAASGLIFYRYAMGWYRQAPGKERELVATISSGGSTNYADSVKGRFTISRDNAKNTVYLQMNSLKPEDTAVYYCAASRWLYYYLFEYWGQGTQGTVSS”, “high polyreactivity”. Consider “QVQLVESGGGLFQAGGSLRLSCAASGGTFDWYTMGWYRQAPGKERELVADITSGGSTYYADSVKGRFTISRDNAKNTVYLQMNSLKPEDTALYYCNKRDKVTYSYDYWGQGTQVTVSS”, for which the “polyreactivity (PSR sort gate)” value was “high polyreactivity”.

On to “QVQLVESGGGLVQAGGSLRLSCAASGITFVRNAMGWYRQAPGKEREFVAAISGSGVSTYADSVKGRFTISRDNAKNTVYLQMNSLKPEDTAVYYCARDFPWSYAWYDYWGQGTQVTVSS”, for which the “polyreactivity (PSR sort gate)” value is listed as “low polyreactivity”. With “QVQLVESAGGLVQAGGSLRLSCAASGLTFTGNAIGWYRQAPGKERQCVAAIRWSAGSTYYADSVKGRVTISRDNAKNTVYLQMNSLKPEDTAVYYCNAALNVSGHYPNDYWGQGTQVTVSS” the entry was “low polyreactivity”. With “QVQLVESGGGLVQAGGSLRLSCAASGFTFVNYAMGWYRQAPGKERELVAAISFRSARTYYADSVKGRFTISRDNAKNNVYLQMNSLKPEDTAVYYCAARVSRRFDYWGQGTQVTVSS” the entry was “high polyreactivity”; with “QVQLEESGGGIVQAGGSLRLSCAASGSTFVLYAMGWYRPAPGKERELVAAITSGGSTYYADSVKGRFTISRDNAKNTVYLQMNSLKPEDTAVYYCAASYWDTEPGYREYDYWGQGTQVTVSS”, “low polyreactivity”; with “QVQLVESGGGLVQAGGSLRLSCAASGSTFHYYAMGWYRQAPGKERELVAAISYSGGRTYYADSVKGRFTISRDNAKNTVYLQMNSLKPEDTAVYYCAARRSRTGRDESWGQGTQVTVSS”, “high polyreactivity”. Take “QVQLVESGGGLVQAGGSLRLSCAASGFTFGHYAMGWYRQAPGKQRELVAAISYSGVRTYYADSVKGRFTISRDNAKNTVYLQMNSLKPEDTAVYYCNKYPAHYQTRRYDYWGQGTQVTVSS”: the “polyreactivity (PSR sort gate)” value is “high polyreactivity”. With “QVQLVESVGGLVQAGGSLRLSCAASGSIFYYNTMGWYRQAPGKVRELVATISSDGGTNYADSVKGRFTISRDNAKNTVYLQMNSLKPEDTAVYYCAAAVSPYSYWPGFDYWGQGTQVTVSS” the entry was “low polyreactivity”; with “QVQLVESGGGLVQAGGSLRLSCAASGSTFHPNTMGWYRQAPGKERELGARISSGGSTNYADSVKGRFTISRDNAKNTVYLQMNSLKPEDTAVYYCAARTAFSGARGRGGYWGQGTQVTVSS”, “high polyreactivity”; with “QVQLVESGGGLVQAGGSLRLSCAASGLTSTDNAMGWYRQAPGKERELVAGITTGGSTYYADSVKGRFTISRDNAKNTVYLQMNSLKPEDTAVYYCNAPTYADTTYDYWGQGTQVTVSS”, “low polyreactivity”. For “QVQLVESGGGLVQAGGSLRLSCAASGSTFRYYAMGWYRQAPGKERELVAAISGTGSTYYADSVKGRFTISRDNAKNTVSLQMNSLKPEDTAVYYCGAYPRGSQRYNYWGQGTQVTVSS”, the “polyreactivity (PSR sort gate)” value was “high polyreactivity”.

In the case of “QVQLVESGGGLVQAGGSLRLSCAASGRTFYGYAKGWYIQAPGKERELVAAITRAGSTNYADSVKGRFTISRDNAKNTFYLQLNSLKPEDTAVYYCAAVRVHTDRYNYWGQGTQVTVSS”, the “polyreactivity (PSR sort gate)” value is “high polyreactivity”. With “QVQLVESGGGLVQAGGSLRLSCAASGFTFGQYAMGWYRQAPVKERELVAAITGSGGRTYYADSVKGRITISRDTAKNTVYLQMNSLKPEDTGVYYCNARVPLRQYSNYYWGQGTQVTVSS” the entry was “high polyreactivity”; with “QVQLVESGGGLVQAGGSLRLSCAASGSIFGGYAMGWYRQAPGKERELVAAISSSGGSTYYADSVKGRFTISRDNAKNTVYLQMHSLKPEDTAVYYCASSYHGRSYHLNYWGQGTQVTVSS”, “high polyreactivity”.

Consider “QVQLLESGGGLVQAGGSLRLSCAASGRIFGRYAMGWYRHAPGKERELVAAISQSGARTYYADSVKGRFTFSRDNAKNTVYLQMNSLKPEDTAVYYCAARYKALYDYWGQGTQVTVSS”, for which the “polyreactivity (PSR sort gate)” value was “high polyreactivity”. On to “QVQLVESGGGLVQAGGSLRLSCAASGFTFRRNTMGWYRQEPGKERELVAAITQRGGSTYYADSVKGRFTISRDNAKNTVYLQMNSLKPEDTAVYYCAVERHSYIYKYDYWGQGTQVTVSS”, for which the “polyreactivity (PSR sort gate)” value is on record as “high polyreactivity”. With “QVQLVESGGGLVQAGGSLRLSCAASGNTIDSYGMGWYRQAPGKERELVAAISTSGGSTYYADSVKGRFTISRDNAKNTVYLQMNSLKPEDTAVYYCNATWTMTYDYWGQGTQVTVSS” the entry was “low polyreactivity”; with “QVQLVDSGGGLVQAGGSLRLSCPASGSTFLVYAMGWYRQAPGKERELVAVITYSTVRTYYADSVKGRFTISRDNAKNTVYLQMNSLKPEDTAVYHCNADKEFAVLGQGMDFWGQGTQVTVSS”, “low polyreactivity”. Take “QVHLVESGGGLVQAGGSLRLSCAASGRIFRKYAIGWYRQAPGKERELVAAISFSGTSTYYADSVKGRFTISRDNAKNTVYLQMNSLKPEDTAVYYCAAVYRQGTGYVDYDSWGQGTQVTVSS”: the “polyreactivity (PSR sort gate)” value is on record as “low polyreactivity”. Take “QVQLVESGGGLVQAGGSLRLSCSASGRIFGYNAMGWSRQAPGKERELVAAISYSGTSTYYADSVKGRFTISRDKAKNTVYLQMNSLKPEDTAVYYCATLAYRWSVAYEYLGQGTQVTVSS”: the “polyreactivity (PSR sort gate)” value is “low polyreactivity”.

As for “QVQLVESGVGIVQAGGSLRVSCAASGFTFYSYAKGWYRQAPGKERELVAAISYTGGSTYYADSVKGRFTISRDNAKNTVSLQMNSQKPEDSAVYYCAAKLWTRVTRMRRWVDYWGQGTQVSVSS”, the “polyreactivity (PSR sort gate)” value is on record as “high polyreactivity”. With “QVQHVESGGGLVQAGGSLRLSCAASGFIFRRYVMGWYRQAPGKERELVAAISYGGGSTYYADSVKGRFTISRDNAKNTVYLQMNCLKPEDTAVYYCNAVSYNLAAYDYWGQGTQVTVSS” the entry was “high polyreactivity”; with “QVQLVESGGGLVQAGGSLRLSCAASGRIIYNAMGWYRQAPGKERELVAAITSNGCSTYYADSVKGLFTISRDTAKNTVYLQMNSLKPEDTAVYYCARDVNSVPSEVKYDYWGQGTQVNVSS”, “low polyreactivity”; with “QVQLVESGGGLVQAGGSLRLSCAASGFTFYGYVMGWYRQAPGKERDLVAVISRSGDRTYYADSVKGRFTISRDNAKNTVYFQMNSLKPEDTAVYYCAARVYLLGWWTGNGYWGQGTQVTVSS”, “high polyreactivity”. Take “QVQLVESGGGLVQAGGSLRLSCAASGSTFTGYVMGWYRQAPGKERELVAAITSSVDGTYYADSVKGRFTISRDNAKNTVYLQMNSLKPEDTAVYDCAADLWKGVYPSYDYWGQGTQVTVSS”: the “polyreactivity (PSR sort gate)” value is on record as “low polyreactivity”. With “QVQLVESGGGLGQAGGSLSLSCAAYGRIYSRYAMGWYRQAPGKERELVAAINSGGITNYADSVKGRFTISRDNAKNTVYLQMNSLNPEDTAVYYCAAQARRSWGKYYYWGQGTQVPVSS” the entry was “high polyreactivity”; with “QVQLVESGGGLVQAGCSLRLSCAASGNIFYRYAKGRYRPAPGKERELVAGITWSGGSTYYADSVKGRFTISRDNAKNTVYLQMTSLKPEDTAVYYCGQANYYWGQGTQVTVSS”, “low polyreactivity”.

These data come from the nanobody polyreactivity screen of Harvey et al. (2022).
